These are literature values, as cited in PMC5075297.

By Kd is commonly meant the free concentration of one partner at which half of the binding sites on the other are occupied at equilibrium, for simple one-to-one binding.

The target of series [1] is tropoelastin (Homo sapiens) (UniProt P15502).
In series [2] the target is type I collagen (Homo sapiens) (UniProt P02452).
Series [3] concerns the target cellular fibronectin (Homo sapiens) (UniProt P02751).
UniProt P02751, sequence (P02751 32-2477): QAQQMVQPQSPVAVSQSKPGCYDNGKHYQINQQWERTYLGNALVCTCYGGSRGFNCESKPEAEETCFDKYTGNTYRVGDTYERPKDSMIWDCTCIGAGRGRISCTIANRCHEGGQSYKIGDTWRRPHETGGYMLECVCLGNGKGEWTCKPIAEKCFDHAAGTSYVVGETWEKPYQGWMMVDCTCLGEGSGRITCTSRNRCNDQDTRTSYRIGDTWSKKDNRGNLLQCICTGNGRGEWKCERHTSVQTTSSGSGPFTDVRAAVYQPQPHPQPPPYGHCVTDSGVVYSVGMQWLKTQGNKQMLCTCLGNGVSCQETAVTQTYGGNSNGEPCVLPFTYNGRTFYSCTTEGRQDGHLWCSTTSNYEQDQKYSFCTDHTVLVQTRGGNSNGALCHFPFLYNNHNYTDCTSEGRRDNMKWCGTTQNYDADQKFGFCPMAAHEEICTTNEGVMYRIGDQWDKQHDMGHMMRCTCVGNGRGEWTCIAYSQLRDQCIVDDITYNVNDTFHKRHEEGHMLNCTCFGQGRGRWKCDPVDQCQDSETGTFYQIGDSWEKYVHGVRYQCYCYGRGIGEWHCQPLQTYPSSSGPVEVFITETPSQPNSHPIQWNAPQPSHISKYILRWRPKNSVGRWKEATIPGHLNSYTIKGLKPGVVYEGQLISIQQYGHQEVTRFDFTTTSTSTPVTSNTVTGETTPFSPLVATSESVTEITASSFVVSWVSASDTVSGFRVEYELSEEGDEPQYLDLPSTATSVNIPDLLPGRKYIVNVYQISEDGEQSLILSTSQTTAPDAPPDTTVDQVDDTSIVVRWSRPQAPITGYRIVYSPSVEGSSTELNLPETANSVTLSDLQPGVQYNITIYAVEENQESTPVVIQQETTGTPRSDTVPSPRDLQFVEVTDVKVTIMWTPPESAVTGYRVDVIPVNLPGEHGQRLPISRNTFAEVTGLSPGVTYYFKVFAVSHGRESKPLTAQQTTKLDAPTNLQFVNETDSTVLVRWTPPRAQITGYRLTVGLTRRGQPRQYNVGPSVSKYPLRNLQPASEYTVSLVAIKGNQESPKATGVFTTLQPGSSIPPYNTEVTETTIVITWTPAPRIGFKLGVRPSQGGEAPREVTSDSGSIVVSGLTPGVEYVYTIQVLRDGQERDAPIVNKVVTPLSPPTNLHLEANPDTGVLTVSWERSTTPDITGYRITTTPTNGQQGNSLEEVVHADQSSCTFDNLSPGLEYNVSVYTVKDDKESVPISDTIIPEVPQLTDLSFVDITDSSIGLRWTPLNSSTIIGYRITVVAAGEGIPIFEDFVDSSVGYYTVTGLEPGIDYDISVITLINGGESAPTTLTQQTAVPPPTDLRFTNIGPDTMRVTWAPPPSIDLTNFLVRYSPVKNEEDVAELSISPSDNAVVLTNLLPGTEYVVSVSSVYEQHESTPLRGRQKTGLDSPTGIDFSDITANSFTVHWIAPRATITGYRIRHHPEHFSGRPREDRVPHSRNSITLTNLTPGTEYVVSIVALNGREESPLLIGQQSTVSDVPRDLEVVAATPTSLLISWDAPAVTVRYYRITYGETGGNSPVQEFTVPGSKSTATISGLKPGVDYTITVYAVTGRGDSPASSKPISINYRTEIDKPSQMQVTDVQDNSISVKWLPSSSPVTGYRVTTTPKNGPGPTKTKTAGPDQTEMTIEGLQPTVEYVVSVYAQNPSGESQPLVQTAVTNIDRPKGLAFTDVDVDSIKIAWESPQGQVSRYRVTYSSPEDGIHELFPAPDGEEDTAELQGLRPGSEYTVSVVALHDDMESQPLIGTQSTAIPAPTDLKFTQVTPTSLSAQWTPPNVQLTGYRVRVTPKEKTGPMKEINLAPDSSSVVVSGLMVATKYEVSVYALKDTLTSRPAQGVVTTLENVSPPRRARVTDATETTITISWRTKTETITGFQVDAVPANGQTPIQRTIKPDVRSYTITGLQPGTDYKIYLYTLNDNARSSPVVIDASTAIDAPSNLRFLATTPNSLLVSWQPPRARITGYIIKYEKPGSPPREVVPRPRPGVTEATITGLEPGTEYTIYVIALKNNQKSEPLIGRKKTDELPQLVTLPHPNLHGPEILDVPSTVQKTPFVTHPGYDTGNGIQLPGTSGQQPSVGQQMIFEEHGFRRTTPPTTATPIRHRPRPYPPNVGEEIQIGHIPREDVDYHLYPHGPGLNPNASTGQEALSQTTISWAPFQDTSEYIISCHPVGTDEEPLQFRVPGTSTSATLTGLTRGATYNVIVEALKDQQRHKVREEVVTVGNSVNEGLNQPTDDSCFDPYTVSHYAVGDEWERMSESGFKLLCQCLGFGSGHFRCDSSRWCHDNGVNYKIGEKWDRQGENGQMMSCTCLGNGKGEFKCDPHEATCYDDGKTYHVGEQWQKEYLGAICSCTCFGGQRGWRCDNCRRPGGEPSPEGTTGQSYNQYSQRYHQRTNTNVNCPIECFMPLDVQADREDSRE

UniProt P15502, sequence (P15502 27-786): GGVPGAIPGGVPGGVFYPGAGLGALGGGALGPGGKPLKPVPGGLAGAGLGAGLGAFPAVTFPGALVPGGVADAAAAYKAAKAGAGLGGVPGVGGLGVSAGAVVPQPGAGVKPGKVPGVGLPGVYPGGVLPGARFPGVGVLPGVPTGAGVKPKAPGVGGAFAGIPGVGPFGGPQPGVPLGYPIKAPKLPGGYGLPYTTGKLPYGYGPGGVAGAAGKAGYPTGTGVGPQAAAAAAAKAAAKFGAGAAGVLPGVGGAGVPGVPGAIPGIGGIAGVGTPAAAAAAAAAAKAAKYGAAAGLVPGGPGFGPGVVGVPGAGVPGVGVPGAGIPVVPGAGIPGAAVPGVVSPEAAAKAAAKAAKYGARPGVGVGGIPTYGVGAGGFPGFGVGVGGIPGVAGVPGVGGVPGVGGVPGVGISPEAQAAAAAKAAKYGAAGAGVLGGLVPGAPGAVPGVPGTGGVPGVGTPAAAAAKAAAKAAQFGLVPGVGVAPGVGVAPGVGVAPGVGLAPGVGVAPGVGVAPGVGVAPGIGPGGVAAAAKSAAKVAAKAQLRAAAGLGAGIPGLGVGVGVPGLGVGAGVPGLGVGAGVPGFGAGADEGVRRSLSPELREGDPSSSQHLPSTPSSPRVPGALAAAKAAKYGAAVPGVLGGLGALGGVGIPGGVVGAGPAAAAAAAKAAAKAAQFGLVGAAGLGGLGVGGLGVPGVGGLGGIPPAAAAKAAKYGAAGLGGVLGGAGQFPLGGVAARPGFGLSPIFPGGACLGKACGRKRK

As for LOX (from UniProt P28300), the Kd was 1.9 nM in series [1], 5.2 nM in series [2] and 2.5 nM in series [3].
